Results reported in publication PMC8192573.

Molecular target: OsBOR3_(∆1–642) (Oryza sativa)
Assay: cryo-EM structure; OsBOR3 (1 mg/mL) in 20 mM Tris (pH 7.5), 150 mM NaCl, 0.75x CMC LMNG on Quantifoil grids; 116,140 particles; 3D refinement with C2 symmetry imposed; 5-6 Å

OsBOR3_(∆1–642) (domain or fragment)
stoichiometry N: 2
